Blank lines part the entries; values can stand above or below the binder they belong to.
Key:
[1] = biological target: T1, human CD98hc (human, UniProt P08195 109-529); assay: affinity as listed in study design table; method not given there
T1 construct: also called huCD98hc; CD98 heavy chain
T1 sequence: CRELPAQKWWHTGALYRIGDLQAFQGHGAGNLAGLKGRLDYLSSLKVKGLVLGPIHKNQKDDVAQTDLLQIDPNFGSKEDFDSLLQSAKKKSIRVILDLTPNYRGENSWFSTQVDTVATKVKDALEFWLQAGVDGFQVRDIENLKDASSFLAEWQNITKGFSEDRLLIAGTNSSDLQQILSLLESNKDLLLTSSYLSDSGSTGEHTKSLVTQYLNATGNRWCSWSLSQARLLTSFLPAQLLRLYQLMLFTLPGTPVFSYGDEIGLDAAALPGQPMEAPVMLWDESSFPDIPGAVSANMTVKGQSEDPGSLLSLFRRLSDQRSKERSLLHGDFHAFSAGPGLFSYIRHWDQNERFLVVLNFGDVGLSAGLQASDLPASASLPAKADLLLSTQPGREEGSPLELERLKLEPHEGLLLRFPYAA

[2] = biological target: T1, human CD98hc; assay: as above; remark: listed apart in the source
[3] = biological target: T1, human CD98hc; assay: as above; remark: listed apart in the source
[4] = biological target: T2, TfR (Homo sapiens (Human), UniProt P02786 121-760, limits assumed); assay: Biacore, control sample kept in PBS
T2 construct: also called transferrin receptor
Description: (§1) Clone 6.5.11.5.42.2, with and without LS mutations, was assessed for low pH stability during developability assessment. The tested proteins are bivalent Fc-Fab fusion polypeptides comprising an anti-HER2 Fab domain linked to two Fc polypeptides each having the sequence of the identified clone and LALA mutations, with LS mutations or without LS mutations. An Fc control containing the anti-HER2 Fab domain linked to an Fc domain with LALA mutations and without TfR-binding sites was included for comparison.
(§2) Aliquots (100 μL) of each clone were added to wells of a 96-well plate containing 6 μL of 5% (v/v) acetic acid and mixed well. The plate was sealed and incubated at room temperature for about three (3) hours. Subsequently, 35 μL of 1 M Tris HCl (pH 7.5) was added to the samples and mixed well. The plate was sealed once again and incubated at room temperature for 24 hours. Control condition was storage in 1× PBS without any change in pH during incubation. The samples were then analyzed by Biacore for binding affinity and by size exclusion chromatography to detect intact fusion protein. FIG. 22 and Table 26 provide the results of the analyses.

[5] = biological target: T2, TfR; assay: Biacore, after low pH hold and neutralisation
Description: as §1, §2

[6] = biological target: T3, circularly permuted human TfR apical domain (human, biotin on the Avi tag); assay: SPR
T3 construct: a linker between the two segments is not described; also called huTfR apical domain; not shown: Avi tag and PreScission site left after Ulp1 cleavage
T3 chain: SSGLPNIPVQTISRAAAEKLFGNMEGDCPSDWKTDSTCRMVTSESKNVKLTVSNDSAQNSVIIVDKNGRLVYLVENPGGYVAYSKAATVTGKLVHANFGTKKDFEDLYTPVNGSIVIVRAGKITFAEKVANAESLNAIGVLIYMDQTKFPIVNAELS
Description: (§3) Biacore™ Series S CM5 sensor chips were immobilized with anti-human Fab (GE Healthcare, 28958325). Molecules were captured on each flow cell and serial 3-fold dilutions of human TfR apical domain (2, 0.67, 0.22, 0.074, 0.025, and 0 μM) and cynomologous TfR apical domain (4, 1.3, 0.44, 0.15, 0.05, and 0 μM) were injected at a flow rate of 30 μL/min using single cycle kinetics method. Each sample was analyzed with a 60-second association and a 3-minute dissociation. After each cycle, the chip was regenerated using 10 mM glycine-HCl (pH 2.1) for 30 seconds at 50 μL/min. Binding response was corrected by subtracting the RU from a reference flow cell. A 1:1 Langmuir model of simultaneous fitting of kₒₙ and koff was used for kinetics analysis using Biacore™ 8K Evaluation Software. Table 32A below summarizes the binding affinities of selected clones for human and cynomolgus TfR apical domains.
(§4) The phage library was panned against biotinylated human TfR apical domain immobilized to magnetic streptavidin beads. Four rounds of phage panning were performed and enriched clones were sequenced. Unique hits were cloned onto an anti-BACE1 hIgG1 monoclonal antibody containing the “LALA” mutations, expressed in HEK293 cells, and purified by protein A chromatography. Affinity to human and cyno TfR apical domain was measured by SPR. Clones were evaluated for TfR-specific cell binding (FIGS. 43A and 43B).

[7] = biological target: T4, circularly permuted cyno TfR apical domain (cynomolgus monkey, biotin on the Avi tag); assay: SPR
T4 construct: a linker between the two segments is not described; also called cyTfR apical domain; not shown: Avi tag and PreScission site left after Ulp1 cleavage
T4 chain: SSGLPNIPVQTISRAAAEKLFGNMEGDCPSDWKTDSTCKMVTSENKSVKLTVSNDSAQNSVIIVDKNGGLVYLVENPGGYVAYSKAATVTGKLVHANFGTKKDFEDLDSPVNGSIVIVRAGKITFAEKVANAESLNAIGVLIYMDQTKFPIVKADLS
Description: as §3, §4

[8] = biological target: T5, human TfR on HEK293T cells (human, UniProt P02786 1-760); assay: cell uptake at 37 C into HEK293T human TfR positive cells, anti-human IgG staining, imaging (corrected spot intensity)
T5 construct: also called huTfR expressing cells; human TfR-positive cells
Description: (§5) HEK293T, CHO:cyTfR, and CHO cells were plated at 40,000 cells/well of 96-well plates in standard growth media (DMEM (Gibco™ 11995073)+10% FBS (VWR 89510⁻¹⁸⁸)+1×Pen/Strep (Gibco 15140122)). Approximately 24 hours later, molecules were diluted into standard growth media warmed to 37° C. Old media was removed from the cells, and the diluted molecules were added to the cells. Cells were incubated at 37° C. for 45 minutes. Cells were then washed with PBS and then fixed for 10 minutes in 4% PFA (Electron Microscopy Sciences 15714-S). Cells were washed with PBS and then blocked with 5% BSA, 0.3% TritonX100 in PBS for 30 minutes. […] Cells were washed with PBS, imaged on an Opera Phenix, and images were analyzed with Harmony software.

[9] = biological target: T6, cynomolgus monkey TfR on CHO cells (cynomolgus monkey, UniProt Q5RDH6 1-760 (Pongo abelii entry)); assay: cell uptake at 37 C into CHO cells expressing cynomolgus monkey TfR, anti-human IgG staining, imaging (corrected spot intensity)
T6 construct: also called CHO:cyTfR; cyTfR expressing cells
T6 chain: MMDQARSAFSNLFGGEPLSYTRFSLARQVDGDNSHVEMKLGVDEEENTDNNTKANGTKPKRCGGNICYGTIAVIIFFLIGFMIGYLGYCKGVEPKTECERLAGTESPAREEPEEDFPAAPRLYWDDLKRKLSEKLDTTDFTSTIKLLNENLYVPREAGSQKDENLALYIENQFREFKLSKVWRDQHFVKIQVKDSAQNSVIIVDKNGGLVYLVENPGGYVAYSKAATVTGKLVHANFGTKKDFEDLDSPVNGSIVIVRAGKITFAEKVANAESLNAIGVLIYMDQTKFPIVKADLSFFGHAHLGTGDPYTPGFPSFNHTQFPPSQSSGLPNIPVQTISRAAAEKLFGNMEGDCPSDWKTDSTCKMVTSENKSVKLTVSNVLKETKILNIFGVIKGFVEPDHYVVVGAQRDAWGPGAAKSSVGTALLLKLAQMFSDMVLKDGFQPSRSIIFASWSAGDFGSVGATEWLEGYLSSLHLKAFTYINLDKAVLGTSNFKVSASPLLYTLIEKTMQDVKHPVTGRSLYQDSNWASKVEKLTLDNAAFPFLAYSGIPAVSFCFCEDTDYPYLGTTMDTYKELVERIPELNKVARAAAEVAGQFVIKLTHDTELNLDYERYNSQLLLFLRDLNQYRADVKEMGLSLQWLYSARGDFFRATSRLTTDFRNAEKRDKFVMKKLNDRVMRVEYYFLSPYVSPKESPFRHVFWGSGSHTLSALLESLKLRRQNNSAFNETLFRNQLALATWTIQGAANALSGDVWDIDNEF
Description: as §5

[10] = biological target: T1, human CD98hc; assay: affinity as listed in study design table; method not given there; Bivalent, NBF Fabs

B1: Clone 1: LLB2-10-8 bivalent, BACE1 Fabs (Fc fusion)
chain: APELLGGPSVFLFPPKPKDTLMISRTPEVTCVVVDVSHEDPEVKFNWYVDGVEVHNAKTKPREEQYNSTYRVVSVLTVLHQDWLNGKEYKCKVSNKALPAPIEKTISKAKGQPREPQVYTLPPSRDELTKNQVSLTCLVKGFYPSDIAVLWNSRFVLENNYKTTPPVLDSDGSFFLYSKLTVDKSRWQQGEIFACNVYHEALHNHYTFKNLALSPGK
notes: bivalent; effector positive
Kd [1]: 100 to 200 nM

B2: Clone 26: LLB2-10-8 bivalent, non-binding Fabs (Fc fusion)
chain: APELLGGPSVFLFPPKPKDTLMISRTPEVTCVVVDVSHEDPEVKFNWYVDGVEVHNAKTKPREEQYNSTYRVVSVLTVLHQDWLNGKEYKCKVSNKALPAPIEKTISKAKGQPREPQVYTLPPSRDELTKNQVSLTCLVKGFYPSDIAVLWNSRFVLENNYKTTPPVLDSDGSFFLYSKLTVDKSRWQQGEIFACNVYHEALHNHYTFKNLALSPGK
notes: bivalent; effector positive
Kd [2]: 100 to 200 nM | Kd [3]: 100 to 200 nM

B4: 42.2 LALA (bivalent clone 6.5.11.5.42.2 with LALA, anti-HER2 Fab) (Fc fusion)
chain: APEAAGGPSVFLFPPKPKDTLMISRTPEVTCVVVDVSHEDPEVKFNWYVDGVEVHNAKTKPREEQYNSTYRVVSVLTVLHQDWLNGKEYKCKVSNKALPAPIEKTISKAKGQPREPQVYTLPPSRDELTKNQVSLTCLVKGFYPSDIAVEWFSDGSKETNYKTTPPVLDSDGSFFLYSKLTVDKSRWQQGNLFACEVMHEALHNHYTYKLLSLSPGK
Kd [4]: 1170 nM | Kd [5]: 1180 nM

B6: Clone 1 with LALA (Fc fusion)
chain: APEAAGGPSVFLFPPKPKDTLMISRTPEVTCVVVDVSHEDPEVKFNWYVDGVEVHNAKTKPREEQYNSTYRVVSVLTVLHQDWLNGKEYKCKVSNKALPAPIEKTISKAKGQPREPQVYTLPPSRDELTKNQVSLTCLVKGFYPSDIAVKWGSEVAPENNYKTTPPVLDSDGSFFLYSKLTVDKSRWQQGNIFACTVMHEALHNHYTLKMLSLSPGK
notes: Fc part only
Kd [6]: 480 nM | Kd [7]: 1800 nM | binding result [8]: binds | binding result [9]: binds

B7: Clone 3 with LALA (Fc fusion)
chain: APEAAGGPSVFLFPPKPKDTLMISRTPEVTCVVVDVSHEDPEVKFNWYVDGVEVHNAKTKPREEQYNSTYRVVSVLTVLHQDWLNGKEYKCKVSNKALPAPIEKTISKAKGQPREPQVYTLPPSRDELTKNQVSLTCLVKGFYPSDIAVLWGSAVAPENNYKTTPPVLDSDGSFFLYSKLTVDKSRWQQGNVFACTVMHEALHNHYTVKGLSLSPGK
notes: Fc part only
Kd [6]: 1500 nM | Kd [7]: 6000 nM | binding result [8]: binds | binding result [9]: binds

More lines, now with the values ahead:

Kd [2]: 390 nM
B3: Clone 28: LLB2-37 bivalent, non-binding Fabs (Fc fusion)
chain: APELLGGPSVFLFPPKPKDTLMISRTPEVTCVVVDVSHEDPEVKFNWYVDGVEVHNAKTKPREEQYNSTYRVVSVLTVLHQDWLNGKEYKCKVSNKALPAPIEKTISKAKGQPREPQVYTLPPSRDELTKNQVSLTCLVKGFYPSDIAVLWNSQFHLENNYKTTPPVLDSDGSFFLYSKLTVDKSRWQQGNIFACNVYHEALHNHYTFKNLLLSPGK
notes: bivalent; effector positive

Kd [4]: 1700 nM | Kd [5]: 1810 nM
B5: 42.2 LALA LS (bivalent clone 6.5.11.5.42.2 with LALA and LS, anti-HER2 Fab) (Fc fusion)
chain: APEAAGGPSVFLFPPKPKDTLMISRTPEVTCVVVDVSHEDPEVKFNWYVDGVEVHNAKTKPREEQYNSTYRVVSVLTVLHQDWLNGKEYKCKVSNKALPAPIEKTISKAKGQPREPQVYTLPPSRDELTKNQVSLTCLVKGFYPSDIAVEWFSDGSKETNYKTTPPVLDSDGSFFLYSKLTVDKSRWQQGNLFACEVLHEALHSHYTYKLLSLSPGK

Kd [10]: 1000 nM
B8: Clone 4: LLB1-3 D380E bivalent, non-binding Fabs (Fc fusion)
chain: APELLGGPSVFLFPPKPKDTLMISRTPEVTCVVVDVSHEDPEVKFNWYVDGVEVHNAKTKPREEQYNSTYRVVSVLTVLHQDWLNGKEYKCKVSNKALPAPIEKTISKAKGQPREPQVYTLPPSRDELTKNQVSLTCLVKGFYPSDIAVEWRSYKPYENNYKTTPPVLDSDGSFFLYSKLTVDKSRWQQGNIFVCDVMHEALHNHYTIKKLSLSPGK
notes: bivalent; effector positive

— patent US20250145729A1 (DENALI THERAPEUTICS, published 2025)
